Measured values reported in patent publication US10295537B2, “Biorecognition elements for rapid detection of biocontamination” (The United States of America, as represented by the …, priority 2017, dated 2019).

Legend:
[1] = target: biotinylated bovine serum albumin (BSA) (Bos taurus, UniProt P02769); test: Biopanning against biotinylated BSA to identify target-unrelated peptides; format: binding; settings: phage displaying the peptide, round 3
Text: The phage library was then screened to identify target-unrelated peptides by using biotinylated bovine serum albumin (“BSA”) as a target for biopanning.

biotinylated OprF1 = target: T1, biotinylated OprF1 (Pseudomonas aeruginosa, UniProt P13794); test: Unamplified competitive solution biopanning of 14 monoclonal phages against biotinylated OprF1; percent abundance among 30 clones as relative affinity; format: binding, P. aeruginosa; settings: Bushnell-Haas pH 8.5 with 1% v/v Jet-A, 30 randomly selected clones
T1 construct: Biotinylated at its N-terminal, an OprF1 synthetic peptide was used for solution biopanning screening
T1 sequence (P13794 whole entry, looked up): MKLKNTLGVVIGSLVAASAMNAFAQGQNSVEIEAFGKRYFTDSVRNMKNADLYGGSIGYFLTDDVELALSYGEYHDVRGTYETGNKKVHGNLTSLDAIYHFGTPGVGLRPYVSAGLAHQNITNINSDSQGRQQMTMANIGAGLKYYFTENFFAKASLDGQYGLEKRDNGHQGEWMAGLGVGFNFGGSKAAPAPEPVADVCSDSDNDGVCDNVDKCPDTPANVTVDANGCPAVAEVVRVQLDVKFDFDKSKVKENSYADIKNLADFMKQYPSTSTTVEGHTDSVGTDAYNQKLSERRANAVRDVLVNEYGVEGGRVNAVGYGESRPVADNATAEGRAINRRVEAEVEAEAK

OprF1 = target: T2, OprF1 (Pseudomonas aeruginosa, UniProt P13794); test: Solution-phase biopanning of Ph.D.-7 phage library against OprF1 with amplification, physiological conditions, clone abundance; format: binding, P. aeruginosa; settings: four rounds with amplification, physiological conditions (pH 7)
T2 sequence (P13794 whole entry, looked up): T1 sequence (P13794 whole entry, looked up)
Text: Biotinylated at its N-terminal, an OprF1 synthetic peptide was used for solution biopanning screening of a commercially-available M13 bacteriophage library displaying heptameric peptides at the N-terminal of P3 coat protein. Solution-phase biopanning provided the benefit of including the availability of all the OprF1 aa residues for interaction with the potential peptide binder with lessened likelihood of isolating unspecific peptides that might bind to the capture element used to purify the phage-antigen complex (i.e., magnetic or protein G beads).
Generally, solution-phase biopanning was carried out as described by the manufacturer (New England Biolabs, Ipswich, Mass.) with some modifications, including the changing of pH from 7.0 to 5.5 and 8.5 and adding 1% v/v of Jet A fuel. The first round of selection was carried out by diluting Ph.D.-7 bacteriophage library 100-fold in 0.1% Tris buffer saline plus Tween 20 (0.1% TBST) at the appropriate pH for selection plus fuel. Subsequently, the phage library was incubated with 1 μg of N-terminal biotinylated target protein fragment (OprF1: […] (SEQ. ID No. 1), OprF2: ADIKNLADFMK QYPSTSTT (SEQ. ID No. 2), Opr86: […] STP (SEQ. ID No. 3)) for 1 hr at 25° C. […] Titer of the amplified phage (more than 10^10 pfu/mL) was determined by infection into E. coli ER2738 and subsequent growth in selective medium containing X gal/IPTG. […]

biotinylated bovine serum albumin (BSA), sequence (P02769 25-607): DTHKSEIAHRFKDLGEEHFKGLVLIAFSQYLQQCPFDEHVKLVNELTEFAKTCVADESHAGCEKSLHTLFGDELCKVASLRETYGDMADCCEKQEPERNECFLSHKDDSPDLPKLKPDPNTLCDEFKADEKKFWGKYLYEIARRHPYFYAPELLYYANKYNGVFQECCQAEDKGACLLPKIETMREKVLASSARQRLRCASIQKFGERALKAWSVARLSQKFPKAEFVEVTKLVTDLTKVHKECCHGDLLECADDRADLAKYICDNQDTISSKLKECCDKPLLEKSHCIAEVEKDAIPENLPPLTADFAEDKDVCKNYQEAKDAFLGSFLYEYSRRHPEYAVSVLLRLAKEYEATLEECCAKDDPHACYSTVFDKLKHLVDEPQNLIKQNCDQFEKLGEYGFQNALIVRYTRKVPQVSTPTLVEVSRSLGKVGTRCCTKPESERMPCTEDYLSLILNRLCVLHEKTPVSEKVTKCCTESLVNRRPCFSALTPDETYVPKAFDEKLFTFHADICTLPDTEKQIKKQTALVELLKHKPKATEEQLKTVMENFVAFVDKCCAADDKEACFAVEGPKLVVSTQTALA

## PPKINIM (Artificial sequence obtained through biopanning.) [target-unrelated, cross-reacts with BSA]
[1]
  cross-reaction with BSA: cross-react with BSA
Biotinylated OprF1
  % Abundance: 3%
OprF1
  abundance based on round 4 clones: 80%
